One block for each binder: values may come before it.
What was measured:
Assay in all cases: SPR
[1] = molecular target: His-FGF2, LMW FGF2 (residues 135-288, C211S/C229S), P09038; details: chain shown with the change; concentration series 0.031, 0.063, 0.13, 0.25, 0.50, 1.0, 2.0, 4.0, 8.0, 16 µM
[2] = molecular target: T1, His-FGF2 Mut (C211S/C229S/R262A/T263A/K271A), P09038; details: chain shown with the change; concentration series 0.25, 0.50, 1.0, 2.0, 4.0, 8.0, 16, 32, 64 µM
T1 chain: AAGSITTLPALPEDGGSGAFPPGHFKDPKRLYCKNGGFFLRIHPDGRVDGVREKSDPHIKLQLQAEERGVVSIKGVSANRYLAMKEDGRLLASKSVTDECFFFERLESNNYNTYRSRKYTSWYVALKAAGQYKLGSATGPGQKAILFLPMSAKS

[3] = molecular target: T2, His-API5 (apoptosis inhibitor 5, residues 1-504, isoform 2), wild type; details: chain shown with the change; concentration series 0.13, 0.25, 0.50, 1.0, 2.0, 4.0, 8.0, 16 µM
T2 chain: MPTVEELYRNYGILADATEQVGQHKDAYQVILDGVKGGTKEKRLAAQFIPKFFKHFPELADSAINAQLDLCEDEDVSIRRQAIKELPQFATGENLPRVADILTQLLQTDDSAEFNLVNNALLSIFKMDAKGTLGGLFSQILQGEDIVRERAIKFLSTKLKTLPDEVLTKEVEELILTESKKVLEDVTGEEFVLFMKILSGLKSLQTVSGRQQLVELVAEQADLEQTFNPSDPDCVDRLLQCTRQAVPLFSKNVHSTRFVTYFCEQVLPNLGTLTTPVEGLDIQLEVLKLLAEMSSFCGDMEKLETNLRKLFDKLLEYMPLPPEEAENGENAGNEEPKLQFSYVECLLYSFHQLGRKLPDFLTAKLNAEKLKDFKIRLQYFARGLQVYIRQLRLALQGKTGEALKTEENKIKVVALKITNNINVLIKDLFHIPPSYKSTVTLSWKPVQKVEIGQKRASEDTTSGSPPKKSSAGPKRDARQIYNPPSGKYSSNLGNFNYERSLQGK

- koff [1]: 0.0094 s⁻¹
B1: His-API5 (apoptosis inhibitor 5, residues 1-504, isoform 2), wild type E184A; D185A; E190A (protein)
chain: MPTVEELYRNYGILADATEQVGQHKDAYQVILDGVKGGTKEKRLAAQFIPKFFKHFPELADSAINAQLDLCEDEDVSIRRQAIKELPQFATGENLPRVADILTQLLQTDDSAEFNLVNNALLSIFKMDAKGTLGGLFSQILQGEDIVRERAIKFLSTKLKTLPDEVLTKEVEELILTESKKVLAAVTGEAFVLFMKILSGLKSLQTVSGRQQLVELVAEQADLEQTFNPSDPDCVDRLLQCTRQAVPLFSKNVHSTRFVTYFCEQVLPNLGTLTTPVEGLDIQLEVLKLLAEMSSFCGDMEKLETNLRKLFDKLLEYMPLPPEEAENGENAGNEEPKLQFSYVECLLYSFHQLGRKLPDFLTAKLNAEKLKDFKIRLQYFARGLQVYIRQLRLALQGKTGEALKTEENKIKVVALKITNNINVLIKDLFHIPPSYKSTVTLSWKPVQKVEIGQKRASEDTTSGSPPKKSSAGPKRDARQIYNPPSGKYSSNLGNFNYERSLQGK

- koff [2]: 0.00328 s⁻¹
- other: t1/2 (half-life of complex) [2]: 211 s
B2: m1; m2 API5: E184A; D185A; E190A; FGF2: R262A; T263A; K271A (protein)
chain: MPTVEELYRNYGILADATEQVGQHKDAYQVILDGVKGGTKEKRLAAQFIPKFFKHFPELADSAINAQLDLCEDEDVSIRRQAIKELPQFATGENLPRVADILTQLLQTDDSAEFNLVNNALLSIFKMDAKGTLGGLFSQILQGEDIVRERAIKFLSTKLKTLPDEVLTKEVEELILTESKKVLAAVTGEAFVLFMKILSGLKSLQTVSGRQQLVELVAEQADLEQTFNPSDPDCVDRLLQCTRQAVPLFSKNVHSTRFVTYFCEQVLPNLGTLTTPVEGLDIQLEVLKLLAEMSSFCGDMEKLETNLRKLFDKLLEYMPLPPEEAENGENAGNEEPKLQFSYVECLLYSFHQLGRKLPDFLTAKLNAEKLKDFKIRLQYFARGLQVYIRQLRLALQGKTGEALKTEENKIKVVALKITNNINVLIKDLFHIPPSYKSTVTLSWKPVQKVEIGQKRASEDTTSGSPPKKSSAGPKRDARQIYNPPSGKYSSNLGNFNYERSLQGK

- koff [3]: 0.00251 s⁻¹
B3: His-FGF2, LMW FGF2 (residues 135-288, C211S/C229S), P09038 R262A; T263A; K271A (protein)
chain: AAGSITTLPALPEDGGSGAFPPGHFKDPKRLYCKNGGFFLRIHPDGRVDGVREKSDPHIKLQLQAEERGVVSIKGVSANRYLAMKEDGRLLASKSVTDECFFFERLESNNYNTYRSRKYTSWYVALKAAGQYKLGSATGPGQKAILFLPMSAKS

Reference: publication PMC7293033
